Data reported in article PMC12350261.

How the values were obtained:
[1] = target: human D-glucuronyl C5-epimerase Glce^167-617 (human); experiment: dynamic light scattering; DynaPro NanoStar, room temperature, 2 uM Glce^167-617; hydrodynamic radius turned into an estimated molecular weight
[2] = target: human D-glucuronyl C5-epimerase Glce^167-617 (human); experiment: SEC; Superdex 200 10/300 GL, 18 C, 20 mM Tris-HCl pH 8.0, 200 mM NaCl, 1 mM DTT, 100 ug loaded, calibrated with gel filtration standard; apparent molecular weight
[3] = target: human D-glucuronyl C5-epimerase Glce^167-617 (human); experiment: crystal structure; apo Glce^167-617, sitting-drop vapour diffusion at 20 C, 0.2 M ammonium sulfate, 0.1 M Tris pH 8.5, 22% PEG 3,350; space group C 1 2 1, two molecules in the asymmetric unit; 2.88 A

- stoichiometry N [1]: 2
- stoichiometry N [2]: 2
- stoichiometry N [3]: 2
Substance: human D-glucuronyl C5-epimerase Glce^167-617 (domain or fragment)
